Results reported in the supplement of paper PMC10126150.
± gives the standard deviation of the averaged measurements.

Tested on: ATP
Experiment: switch fluorescence ratio, 500 uM ATP over buffer (Cy3 cluster intensity, sum of 5 cycles each) (fold (ratio)); higher = stronger signal-on switching upon ATP binding; sequences stand for … in TCGTCGGCAGCGTCAGATGTGTATAAGAGACAGTTTTTTTTTTTTTTTTTTTTTTTTT…TC
Conditions: aptamer strand: ATP DNA aptamer (quencher-CACCTGGGGGAGTATTGCGGAGGAAGG + anchor), 100 nM annealed; ATP concentration: 500 uM
Procedure, shortened: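 Cy3-labelled switching-strand clusters on a modified Illumina MiSeq flow-cell were annealed to 100 nM quencher-labelled ATP aptamer, imaged in selection buffer, then imaged after 15 min with 500 uM ATP at 22 °C. Five buffer/ATP cycles ran, with NaOH stripping and re-annealing between them. The fluorescence ratio is summed target-cycle over summed buffer-cycle Cy3 intensity per cluster, averaged per switch-domain sequence. Clusters outside 100-1000 RFU were excluded.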
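Further: ATP exposure 15 min at 22 °C before imaging.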

Sequence	switch fluorescence ratio
GAGTGCGGGC	1.07 ± 0.068
GTTCTAAGTA	0.957 ± 0.0039
AAGGTACCAG	1.03 ± 0.036
ACCGTAGGTG	1.03 ± 0.034
GGGGTGGAAA	0.979 ± 0.018
ATCATGGCGG	0.99 ± 0.017
GTACGGGGTT	0.993 ± 0.023
TTGTGGAAAT	1 ± 0.069
TAGACGGAAG	1.052 ± 0.00072
GTGTGCTTAG	1.027 ± 0.004
TTTCGGGCCA	1.12 ± 0.039
TTTGTTGAAA	1.02 ± 0.018
TGGGTGGGAA	1.02 ± 0.04
TAAAAGGGAT	1.01 ± 0.023
AGGGGGTTGT	0.995 ± 0.026
TATTGGGGCG	0.982 ± 0.017
GGGACGGCGG	1.004 ± 0.0087
AAAAACGTAT	1.03 ± 0.04
TCCGGACCGG	0.995 ± 0.019
GGTATTACGT	0.972 ± 0.032
ATAATTTGAC	1.04 ± 0.058
CTTACCTGAG	1.31 ± 0.045

Sequence	switch fluorescence ratio
TTTAGTCGCG	0.967 ± 0.039
ATTAGGTACG	1.02 ± 0.038
TTTTATTGCA	0.96835 ± 0.00073
GATTATTTGT	1.03 ± 0.022
GCCTGGAGTA	1.03 ± 0.065
TTGTTGTCGG	0.956 ± 0.013
TTTTTTATTG	0.989 ± 0.029
TGGGTCTTGG	0.9835 ± 0.0057
CTCTTGTATC	1.05 ± 0.063
ATGTAGTAGT	1 ± 0.034
GATGACAGAG	0.974 ± 0.047
TTTCATTTTA	0.9881 ± 0.0064
TGGGGATTGG	1.17 ± 0.49
GATTGTAAGA	1.16 ± 0.2
TGAAAGGAAT	1.13 ± 0.19
TGGAAAAAAG	0.9901 ± 0.0015
ATATTTTTTA	0.9761 ± 0.0095
CGGGCGAATA	1 ± 0.017
GATTAACGCT	1.03 ± 0.026
AAGTTGCTAG	0.9976 ± 0.0048
GGGTGTGCCA	1 ± 0.027
AATTGGGGTC	0.967 ± 0.031

Sequence	switch fluorescence ratio
TGCATTTAGT	1.006 ± 0.0086
GGCGCATAGG	1.11 ± 0.02
GGGGATATGA	0.995 ± 0.049
GTTGTGGGGT	0.976 ± 0.025
TTATTATGGG	0.987 ± 0.0073
CGTGATATAG	1.02 ± 0.026
AAAGTTACGT	1.01 ± 0.044
TGTATAAAGG	1.009 ± 0.0069
TGATGCTAGG	1.01 ± 0.021
CGGAAATGAA	0.9824 ± 0.0028
CAGAGAGGTC	1.03 ± 0.039
GACGAGTGTG	0.98731 ± 0.00011
TTGAAAATCT	1.02 ± 0.029
TACATGCTGC	1.03 ± 0.022
AAGGTTATTG	1.026 ± 0.0088
ACTAGGGGAC	1.06 ± 0.085
AAAGAAGACG	1.0319 ± 0.00064
CTTATCGGCA	1.0825 ± 0.00095
TTTGATGGGC	0.9911 ± 0.0075
GATGGGTTTG	0.991 ± 0.028
TATGCATGTG	0.996 ± 0.015
GATGAGGTGT	1.01 ± 0.036

Sequence	switch fluorescence ratio
CGGGGAGCGT	1 ± 0.034
GGACGGGGGA	1.02 ± 0.054
CGTAACTAGG	1.02 ± 0.03
TGAGTGGACC	0.992 ± 0.047
GGGGATAGGG	0.985 ± 0.016
CGGGATTAGT	0.99 ± 0.031
GCTAGGGGTT	1.13 ± 0.25
GGACTTGGTC	0.972 ± 0.019
CGTGGTATTT	0.982 ± 0.016
GCCGGGATAG	1.23 ± 0.35
TTACGACCGG	1.01 ± 0.032
ATGTGGCCAC	1.06 ± 0.053
TGAGTAACGG	1.02 ± 0.04
TGAGCTCACG	1.02 ± 0.027
TTCAGGCCGT	1.02 ± 0.056
GAATGGGGGG	1.01 ± 0.078
TAGGTGAAAC	0.988 ± 0.016
GCAGGTCAAT	1.03 ± 0.018
GGGGGTATAC	1.28 ± 0.11
